What was measured:
[1] = target: T1, human BCMA on BCMA positive cells (human, UniProt Q02223 1-184); experiment: cell-based or functional assay
T1 sequence (looked up): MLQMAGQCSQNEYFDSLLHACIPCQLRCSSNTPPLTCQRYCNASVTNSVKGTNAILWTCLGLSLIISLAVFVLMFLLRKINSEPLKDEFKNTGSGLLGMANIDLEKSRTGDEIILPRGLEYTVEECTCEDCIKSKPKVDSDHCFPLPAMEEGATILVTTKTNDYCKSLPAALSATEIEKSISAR

[2] = target: T2, cynomolgus monkey CD3 on cynomolgus monkey T cells (cynomolgus monkey, UniProt Q95LI5 22-198; Q95LI8 22-171; Q95LI7 23-181); experiment: flow cytometry on cynomolgus monkey T cells
T2 construct: Native CD3 on T cells
T2 sequence (Q95LI5 22-198 limits assumed, chain 1 of 3): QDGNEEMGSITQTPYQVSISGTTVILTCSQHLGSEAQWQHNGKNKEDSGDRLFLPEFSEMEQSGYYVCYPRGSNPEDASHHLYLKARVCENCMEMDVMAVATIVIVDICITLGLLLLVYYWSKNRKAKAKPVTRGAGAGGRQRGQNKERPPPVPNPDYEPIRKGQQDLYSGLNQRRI
T2 sequence (Q95LI8 22-171 limits assumed, chain 2 of 3): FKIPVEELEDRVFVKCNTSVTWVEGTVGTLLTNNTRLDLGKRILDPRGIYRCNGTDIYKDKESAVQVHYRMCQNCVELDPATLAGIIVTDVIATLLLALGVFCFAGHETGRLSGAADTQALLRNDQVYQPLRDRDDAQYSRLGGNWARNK
T2 sequence (Q95LI7 23-181 limits assumed, chain 3 of 3): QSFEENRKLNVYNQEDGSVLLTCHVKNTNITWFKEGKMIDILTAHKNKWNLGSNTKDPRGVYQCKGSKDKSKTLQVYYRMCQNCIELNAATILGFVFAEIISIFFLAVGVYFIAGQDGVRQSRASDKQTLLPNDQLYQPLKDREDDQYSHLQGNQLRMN
Procedure: Centrifuge to remove supernatant, wash the plate twice with 1% DPBS, add 100 μl 1% DPBS to each well for resuspension, and detect the signal intensity by flow cytometry.

B1: bispecific antibody AP163 (bispecific antibody)
chain: QVQLVQSGAEVKKPGSSVKVSCKASGGTFSNYWMHWVRQAPGQGLEWMGATYRGHSDTYYNQKFKGRVTITADKSTSTAYMELSSLRSEDTAVYYCARGAIYDGYDVLDNWGQGTLVTVSSGGGGSGGGGSGGGGSDIQMTQSPSSLSASVGDRVTITCSASQDISNYLNWYQQKPGKAPKLLIYYTSNLHSGVPSRFSGSGSGTDFTLTISSLQPEDFATYYCQQYRKLPWTFGQGTKLEIKGGGGGGSGGGGSGGGGSSSSSKAPPPSEVQLLESGGGLVQPGGSLKLSCAASGFTFNTYAMNWVRQAPGKGLEWVARIRSKYNNYATYYADSVKDRFTISRDDSKNTAYLQMNNLKTEDTAVYYCVRHGNFGNSYVSWFAYWGQGTLVTVSSGGGGSGGGGSGGGGSELVVTQEPSLTVSPGGTVTLTCRSSTGAVTTSNYANWVQQKPGQAPRGLIGGTNKRAPGTPARFSGSLLGGKAALTLSGVQPEDEAEYYCALWYSNLWVFGGGTKLTVLDKTHTCPPCPAPEAAGGPSVFLFPPKPKDQLMISRTPEVTCVVVDVSHEDPEVKFNWYVDGVEVHNAKTKPREEQYASTYRVVSVLTVLHQDWLNGKEYKCKVSNKALPASIEKTISKAKGQPREPQVYTLPPSRDELTKNQVSLTCLVKGFYPSDIAVEWESNGQPENNYKTTPPVLDSDGSFFLYSKLTVDKSRWQQGNVFSCSVLHEALHNHYTQKSLSLSPG
notes: human IgG1 Fc with L234A, L235A, T250Q, N297A, P331S, M428L and K447 deleted (EU); also called anti-BCMA×CD3 bispecific antibody
EC50 of activation of NFAT-Jurkat reporter cells (luciferase) in the presence of H929 cells [1]: 3.16 ng/mL
EC50 of cynomolgus monkey T cells killing NCI-H929 tumor cells mediated by AP163 [1]: 0.278 pM
EC50 of human T cells killing NCI-H929 tumor cells mediated by AP163 [1]: 0.239 pM
binding result [2]: binds
